The record followed here is patent publication US20250002562A1 (Scripps Research, published 2025).

In the experiment the target is SARS-CoV2 RBD antigen (Genscript) (SARS-CoV2, UniProt P0DTC2 319-541). In words: ELISA on RBD antigen, human IgG at 1 µg/mL, O.D. 450 nm. A general note: ELISA stands for enzyme-linked immunosorbent assay.

Substitutions are numbered along the chain they refer to.

B1: SKAI-DS1 (antibody, V domains shown)
VH: EVQLLESGGGLVQTGGSLRLSCAASGFTFSDYAMSWVRQAPGKGLEWVSWIYSNDGNKYYADSVKGRFTISRDNSKNTLYLQMNSLRAEDTAVYYCARFPVPSWRNTWSSYDAMDVWGQGTLVTV
VL: QSVLTQPPSASGTPGRRVTISCTGSSSNIGSNYVSWYQQLPGTAPKLLIYSDSNRPSGVPDRFSGSKSGTSASLAISGLRSEDEADYYCGTWDASLSGYVFGGGTKLTVL
notes: also called SKAI-DS1 human IgG antibody
With B1, the binding result is recorded as “binds”.

B2: SKAI-DS3 (antibody, V domains shown)
VH: EVQLLESGGGLVQPGGSLRLSCAASGFTFSDYSMSWVRQAPGKGLEWVSAISSDSSSTYYADSVKGRFTISRDNSENTLYLQMNSLRAEDTAVYYCAKAILRCIPLGCYYADAMDVWGQGTLVTV
VL: B1 VL with R16Q, Y33D, S35T, S51A, N54K, T91A, A94Y, G98A
notes: also called SKAI-DS3 human IgG antibody
Turning to B2, the binding result was “no binding (tested: 1 µg/mL)”.

B3: SKAI-DS15 (antibody, V domains shown)
VH: EVQLLESGGGLVQPGGSLRLSCAASGFTFSDYDMSWVRQAPGKGLEWVSMIYSGSSSKYYADSVKGRFTISRDNSKNTLYLQMNSLRAEDTAVYYCARVTGTCHSGSCYYSDAMDVWGQGTLVTV
VL: B1 VL with R16Q, T23S, Y33D, S35N, S51D, T91A, A94D
notes: also called SKAI-DS15 human IgG antibody
In the case of B3, the binding result is “no binding (tested: 1 µg/mL)”.

B4: SKAI-DS66 (antibody, V domains shown)
VH: EVQLLESGGGLVQPGGSLRLSCAASGFTFSDYAMSWVRQAPGKGLEWVSAIYPGGGSTYYADSVKGRFTISRDNSKNTLYLQMNSLRAEDTAVYYCARNLFGFDYWGQGTLVTV
VL: B1 VL with R16Q, Y33A, S35Y, S51D, T91S, A94D, G98A
notes: also called SKAI-DS66 human IgG antibody
On to B4, for which the binding result is on record as “binds”.

B5: SKAI-DS64 (antibody, V domains shown)
VH: B4 VH with A33S, A50G, P53H, G54S, G55D, T58K, N99F, L100D, F101P, G102V
VL: QSVLTQPPSASGTPGQRVTISCSGSSSNIGSNAVSWYQQLPGTAPKLLIYDNNHRPSGVPDRFSGSKSGTSASLAISGLRSEDEADYYCGSWDDSLNAYVFGGGTKLTVL
notes: also called SKAI-DS64 human IgG antibody
As to B5, the binding result is given as “binds”.
